From patent publication US9561289B2, “Peptides for inhibiting tumor growth” (OSPEDALE SAN RAFFAELE SRL, priority 2012, dated 2017)
Read-outs that look alike come from different tables or passages of the source. Values belong to the molecule of their own block, whether it stands above or below them. *1 amine or outer side, *2 acyl side, *3 side chain or, on linkers, in order; H or OH if unused. Primed or numbered codes have the meaning given here. Side-chain parts run from the residue outwards. [ ]: non-standard residue; d: D form. The star is where a group is joined. βAsp = O=C(O)[C@H](CC(=O)[*:2])N[*:1]; SMCC = sulfo-SMCC linker; OH′ = O*

Assays:
αvβ5 = target: T1, αvβ5 (Homo sapiens, UniProt P06756+P18084); test: Competitive integrin binding assay (isoDGR/STV-HRP) on αvβ5-coated plates; conditions: mean ± SE
T1 construct: purchased Immunological Sciences (Rome, Italy)
Method: (§1) A conjugate consisting of biotinylated acetyl-Ciso[…] (SEQ ID NO:36) peptide complexed with streptavidin-peroxidase conjugate (isoDGR/STV-HRP) was first prepared as described previously. […] Each mixture was then added to microtiter plates coated with integrins (αvβ3, αvβ5, αvβ6, […], or α5β1) and incubated for 2 h at room temperature. After washing, each well was incubated with 70 μl of chromogenic solution (o-phenylenediamine dihydrochloride) for 20 min, at room temperature. The chromogenic reaction was stopped by adding an equal volume of 1 N sulfuric acid. The absorbance at 490 nm was then measured using a microtiter plate reader.
(§2) The binding affinity and selectivity of each peptide for different integrins were then analyzed by competitive binding assay, using αvβ3-, αvβ5-, αvβ6-, αvβ8- and α5β1-coated plates and isoDGR/STV-HRP, an ac-isoDGR-2C/peroxidase complex, as competitor.

αvβ3 = target: T2, αvβ3 (Homo sapiens, UniProt P05106+P06756); test: Competitive integrin binding assay (isoDGR/STV-HRP) on αvβ3-coated plates; conditions: mean ± SE
T2 construct: purchased Immunological Sciences (Rome, Italy)
Method: as §1, §2

αvβ6 = target: T3, αvβ6 (Homo sapiens, UniProt P06756+P18564); test: Competitive integrin binding assay (isoDGR/STV-HRP) on αvβ6-coated plates; conditions: mean ± SE
T3 construct: purchased R&D System (Minneapolis, Minn.)
Method: as §1, §2

α5β1 = target: T4, α5β1 (Homo sapiens, UniProt P05556+P08648); test: Competitive integrin binding assay (isoDGR/STV-HRP) on α5β1-coated plates; conditions: mean ± SE
T4 construct: purchased Immunological Sciences (Rome, Italy)
Method: as §1, §2

[1] = Asn deamidation of NGR peptides by mass spectrometry; type: physicochemical; conditions: 37° C., 0.1 M ammonium bicarbonate buffer, pH 8.5
Method: Orbitrap-ESI mass spectrometry analysis of NGR#3 and NGR-2C at various time points after incubation at 37° C. in 0.1 M ammonium bicarbonate buffer (Ambic), pH 8.5. During the analyses the NGR#3 forms dimers. +0 (no deamidation), +0.5 (one deamidation/molecule) and +1 (two deamidations/molecule) correspond to the difference between found and expected molecular masses in daltons.
It is well known that NGR may undergo Asn deamidation generating isoDGR, an integrin binding motif. To assess whether the molecular scaffold of NGR might affect the deamidation rate we analyzed the molecular masses of NGR#3 and […] (SEQ ID NO:37) (NGR-2C) before and after incubation at 37° C. in 0.1 M ammonium bicarbonate buffer, pH 8.5 (AmBic) for various times. […] The extent of binding of heat-treated NGR-HSA was very similar to that obtained with isoDGR#3-HSA, i.e. a conjugate prepared using a similar peptide having isoAsp in place of Asn (FIG. 17B, right).

Human integrin αvβ3 [2] = target: T5, Human integrin αvβ3 (human, UniProt P06756 31-1048; P05106 27-788, limits assumed); test: competitive binding assay, integrin-coated plate, probe isoDGR/STV-HRP
T5 construct: Bought from Immunological Sciences; coated on microtiter plates or spotted on nitrocellulose; also called avb3; purified αvβ3-integrin
Method: (§3) A conjugate consisting of biotinylated acetyl-Ciso[sequence] […] Each mixture was then added to microtiter plates coated with integrins (αvβ3, αvβ5, αvβ6, αvβ38, or α5β1) and incubated for 2 h at room temperature. After washing, each well was incubated with 70 µl of chromogenic solution (o-phenylenediamine dihydrochloride) for 20 min, at room temperature. The chromogenic reaction was stopped by adding an equal volume of 1 N sulfuric acid. The absorbance at 490 nm was then measured using a microtiter plate reader.
(§4) [b]Ki: equilibrium dissociation constant of the competitor (mean ± SEM). Ki was calculated by nonlinear regression analysis of competitive binding data by using the "One site - Fit Ki" equation of the GraphPad Prism Software (GraphPad Software, Version 5.00 San Diego, California, USA).

Human integrin αvβ3 [3] = target: T5, Human integrin αvβ3; test: as above; remark: listed apart in the source
Method: as §3

[4] = target: T6, Recombinant human integrin αvβ8 (human, UniProt P06756 31-992; P26012 43-684); test: as above
T6 construct: Bought from R&D System; also called αvβ38 [sic]
Method: as §3

[5] = target: T7, Recombinant human integrin αvβ6 (human, UniProt P06756 31-992; P18564 22-707); test: as above
T7 construct: Bought from R&D System
Method: as §3

Human integrin αvβ5 [6] = target: T8, Human integrin αvβ5 (human, UniProt P06756 31-1048; P18084 24-799, limits assumed); test: as above
T8 construct: Bought from Immunological Sciences; coated on microtiter plates
Method: as §3

Human integrin α5β1 [7] = target: T9, Human integrin α5β1 (human, UniProt P08648 42-1049; P05556 21-798, limits assumed); test: as above
T9 construct: Bought from Immunological Sciences; coated on microtiter plates
Method: as §3

[8] = target: T6, Recombinant human integrin αvβ8; test: as above; remark: listed apart in the source
Method: as §3, §4

[9] = target: T7, Recombinant human integrin αvβ6; test: as above; remark: listed apart in the source
Method: as §3, §4

Human integrin αvβ5 [10] = target: T8, Human integrin αvβ5; test: as above; remark: listed apart in the source
Method: as §3, §4

Human integrin α5β1 [11] = target: T9, Human integrin α5β1; test: as above; remark: listed apart in the source
Method: as §3, §4

T8 sequence (P06756 31-1048 limits assumed, chain 1 of 2): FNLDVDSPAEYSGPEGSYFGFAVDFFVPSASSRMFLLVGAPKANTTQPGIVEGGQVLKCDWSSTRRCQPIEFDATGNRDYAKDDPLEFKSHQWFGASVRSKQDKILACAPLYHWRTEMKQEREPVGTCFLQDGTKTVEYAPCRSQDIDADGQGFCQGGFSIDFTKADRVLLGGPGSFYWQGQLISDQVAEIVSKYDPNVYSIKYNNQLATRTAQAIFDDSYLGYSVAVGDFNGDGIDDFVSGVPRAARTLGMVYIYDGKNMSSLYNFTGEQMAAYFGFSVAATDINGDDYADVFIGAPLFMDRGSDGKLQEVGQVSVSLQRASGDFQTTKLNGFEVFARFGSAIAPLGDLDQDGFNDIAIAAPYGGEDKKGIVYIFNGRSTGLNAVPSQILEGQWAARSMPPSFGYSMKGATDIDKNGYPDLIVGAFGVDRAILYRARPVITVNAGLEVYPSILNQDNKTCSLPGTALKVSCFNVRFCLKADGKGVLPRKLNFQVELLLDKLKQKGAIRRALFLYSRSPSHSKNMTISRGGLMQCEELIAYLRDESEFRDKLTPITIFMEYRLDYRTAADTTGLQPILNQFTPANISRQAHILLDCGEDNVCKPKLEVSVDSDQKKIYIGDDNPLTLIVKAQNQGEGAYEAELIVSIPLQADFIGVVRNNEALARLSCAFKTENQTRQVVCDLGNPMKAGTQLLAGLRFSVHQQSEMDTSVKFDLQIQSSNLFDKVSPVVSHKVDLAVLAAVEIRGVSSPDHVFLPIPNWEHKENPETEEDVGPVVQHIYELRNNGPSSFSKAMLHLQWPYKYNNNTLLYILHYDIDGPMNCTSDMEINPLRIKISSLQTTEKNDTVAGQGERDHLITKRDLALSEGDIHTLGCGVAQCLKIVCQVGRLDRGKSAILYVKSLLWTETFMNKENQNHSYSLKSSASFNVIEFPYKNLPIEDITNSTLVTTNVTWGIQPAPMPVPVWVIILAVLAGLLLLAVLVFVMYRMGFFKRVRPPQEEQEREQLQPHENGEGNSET
T8 sequence (P18084 24-799 limits assumed, chain 2 of 2): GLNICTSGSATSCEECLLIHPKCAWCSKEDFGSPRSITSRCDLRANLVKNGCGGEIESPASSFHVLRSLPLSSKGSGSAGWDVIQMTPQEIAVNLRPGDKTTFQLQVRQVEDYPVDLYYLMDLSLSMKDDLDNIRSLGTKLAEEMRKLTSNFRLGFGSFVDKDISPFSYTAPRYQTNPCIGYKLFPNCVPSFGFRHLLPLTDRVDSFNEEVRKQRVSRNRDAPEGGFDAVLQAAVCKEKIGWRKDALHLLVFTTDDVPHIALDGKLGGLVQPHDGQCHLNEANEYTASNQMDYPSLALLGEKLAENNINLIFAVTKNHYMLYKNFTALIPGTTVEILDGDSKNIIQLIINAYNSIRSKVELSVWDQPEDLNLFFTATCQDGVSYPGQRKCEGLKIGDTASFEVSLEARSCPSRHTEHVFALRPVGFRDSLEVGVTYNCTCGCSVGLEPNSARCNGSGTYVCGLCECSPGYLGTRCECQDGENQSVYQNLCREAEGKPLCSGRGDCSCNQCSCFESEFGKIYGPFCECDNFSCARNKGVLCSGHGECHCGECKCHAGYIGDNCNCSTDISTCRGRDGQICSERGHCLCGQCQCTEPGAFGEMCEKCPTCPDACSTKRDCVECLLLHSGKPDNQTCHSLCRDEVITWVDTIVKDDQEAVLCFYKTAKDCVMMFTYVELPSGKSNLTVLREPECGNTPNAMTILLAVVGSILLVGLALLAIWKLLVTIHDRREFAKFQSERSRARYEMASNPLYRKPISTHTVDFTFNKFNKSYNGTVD
T5 sequence (P06756 31-1048 limits assumed, form in doubt, chain 1 of 2): as the sequence (P06756 31-1048 limits assumed, chain 1 of 2) above
T5 sequence (P05106 27-788 limits assumed, form in doubt, chain 2 of 2): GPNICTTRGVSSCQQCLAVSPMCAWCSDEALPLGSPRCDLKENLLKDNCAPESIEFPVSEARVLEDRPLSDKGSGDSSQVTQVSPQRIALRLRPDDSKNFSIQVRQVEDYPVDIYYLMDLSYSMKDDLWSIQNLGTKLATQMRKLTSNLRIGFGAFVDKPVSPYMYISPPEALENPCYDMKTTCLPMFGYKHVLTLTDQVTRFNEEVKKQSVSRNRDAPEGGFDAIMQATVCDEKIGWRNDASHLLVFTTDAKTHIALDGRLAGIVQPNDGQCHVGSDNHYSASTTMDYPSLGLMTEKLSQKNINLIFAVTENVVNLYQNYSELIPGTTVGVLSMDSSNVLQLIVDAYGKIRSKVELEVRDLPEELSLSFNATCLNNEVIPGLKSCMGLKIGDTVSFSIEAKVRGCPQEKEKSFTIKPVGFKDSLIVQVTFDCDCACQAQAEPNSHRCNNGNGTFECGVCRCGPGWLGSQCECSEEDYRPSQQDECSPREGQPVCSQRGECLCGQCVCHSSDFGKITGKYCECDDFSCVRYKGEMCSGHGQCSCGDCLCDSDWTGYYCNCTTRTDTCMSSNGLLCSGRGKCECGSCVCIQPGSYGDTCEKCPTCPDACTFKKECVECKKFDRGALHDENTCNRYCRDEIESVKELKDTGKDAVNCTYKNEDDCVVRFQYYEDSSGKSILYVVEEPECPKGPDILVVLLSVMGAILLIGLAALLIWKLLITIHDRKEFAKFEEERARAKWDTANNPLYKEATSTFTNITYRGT
T9 sequence (P08648 42-1049 limits assumed, chain 1 of 2): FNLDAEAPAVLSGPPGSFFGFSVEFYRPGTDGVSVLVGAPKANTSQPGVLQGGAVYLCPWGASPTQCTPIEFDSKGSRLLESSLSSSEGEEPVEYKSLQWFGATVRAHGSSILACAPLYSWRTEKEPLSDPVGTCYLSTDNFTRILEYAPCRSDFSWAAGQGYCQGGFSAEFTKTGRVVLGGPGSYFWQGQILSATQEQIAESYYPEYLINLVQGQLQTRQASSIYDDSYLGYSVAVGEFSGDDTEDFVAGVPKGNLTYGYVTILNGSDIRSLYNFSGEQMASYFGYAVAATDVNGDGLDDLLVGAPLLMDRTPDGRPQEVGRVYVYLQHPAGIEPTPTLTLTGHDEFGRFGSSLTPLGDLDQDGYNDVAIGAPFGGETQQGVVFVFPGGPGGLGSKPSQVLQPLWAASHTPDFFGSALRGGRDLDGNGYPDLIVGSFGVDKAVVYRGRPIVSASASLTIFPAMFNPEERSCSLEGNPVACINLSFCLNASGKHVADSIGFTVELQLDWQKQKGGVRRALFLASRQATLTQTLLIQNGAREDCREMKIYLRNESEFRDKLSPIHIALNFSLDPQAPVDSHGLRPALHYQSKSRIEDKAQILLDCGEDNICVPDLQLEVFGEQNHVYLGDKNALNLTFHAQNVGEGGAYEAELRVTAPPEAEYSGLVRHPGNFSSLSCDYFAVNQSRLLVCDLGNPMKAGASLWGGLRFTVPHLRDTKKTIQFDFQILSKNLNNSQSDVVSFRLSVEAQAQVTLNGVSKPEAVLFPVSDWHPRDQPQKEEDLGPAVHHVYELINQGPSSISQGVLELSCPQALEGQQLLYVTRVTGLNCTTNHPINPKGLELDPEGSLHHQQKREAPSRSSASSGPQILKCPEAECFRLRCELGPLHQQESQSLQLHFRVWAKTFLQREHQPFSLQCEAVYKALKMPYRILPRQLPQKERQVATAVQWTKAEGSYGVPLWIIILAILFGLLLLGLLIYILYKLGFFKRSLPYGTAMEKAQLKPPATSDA
T9 sequence (P05556 21-798 limits assumed, chain 2 of 2): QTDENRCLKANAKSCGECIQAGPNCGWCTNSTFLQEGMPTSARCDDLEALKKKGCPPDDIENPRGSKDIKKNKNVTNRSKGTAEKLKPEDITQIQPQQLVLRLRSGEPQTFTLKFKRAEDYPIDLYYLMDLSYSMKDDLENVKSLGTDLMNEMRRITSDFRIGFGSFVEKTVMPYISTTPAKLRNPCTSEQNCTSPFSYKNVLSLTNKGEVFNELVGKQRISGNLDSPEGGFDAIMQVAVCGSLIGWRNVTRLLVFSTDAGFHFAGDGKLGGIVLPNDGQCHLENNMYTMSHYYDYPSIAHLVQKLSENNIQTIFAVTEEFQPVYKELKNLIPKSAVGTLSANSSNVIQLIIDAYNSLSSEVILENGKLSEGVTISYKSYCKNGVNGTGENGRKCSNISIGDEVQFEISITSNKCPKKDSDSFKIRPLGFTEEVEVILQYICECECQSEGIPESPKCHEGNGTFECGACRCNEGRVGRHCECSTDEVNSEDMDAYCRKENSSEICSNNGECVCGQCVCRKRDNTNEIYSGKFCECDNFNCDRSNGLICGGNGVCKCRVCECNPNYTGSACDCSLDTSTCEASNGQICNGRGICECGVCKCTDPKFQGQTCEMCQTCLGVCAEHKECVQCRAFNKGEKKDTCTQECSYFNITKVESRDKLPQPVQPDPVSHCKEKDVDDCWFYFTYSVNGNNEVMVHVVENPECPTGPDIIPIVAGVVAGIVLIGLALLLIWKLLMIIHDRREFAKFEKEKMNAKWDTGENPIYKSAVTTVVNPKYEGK

Molecule: CNGRCGVRY [NGR-2C, reference compound]
deamidation rate [1]: faster than that of NGR#3

Molecule: c(CNGRGG) (cyclic; Cyclic peptide) [NGR#3]
deamidation rate [1]: reduce the deamidation rate

B1: isoDGR#3-linker conjugate, peak P2 (peptide)
peptide: cyclo(C(SMCC)[βAsp]GRGG)
modifications: not fully specified
notes: said to be similar to isoDGR#1-linker (P2 carboxylic form); also called isoDGR#3-P2
Ki (Human integrin αvβ3 [2]): 18 nM

B2: isoDGR#1-linker conjugate, peak P2 (peptide)
peptide: cyclo(C([SMCC-OH′])G[βAsp]GRG)
notes: HPLC peak P2 (carboxylic form, partial hydrolysis of sulfo-succinimide); also called isoDGR#1-P2
Ki (Human integrin αvβ3 [2]): 33 nM
ratio of integrin Ki/αvβ3 Ki (Human integrin αvβ3 [2]): 1
Ki [8]: 10500 nM
ratio of integrin Ki/αvβ3 Ki [8]: 318
Ki [9]: 2730 nM
ratio of integrin Ki/αvβ3 Ki [9]: 80
Ki (Human integrin αvβ5 [10]): 52 nM
ratio of integrin Ki/αvβ3 Ki (Human integrin αvβ5 [10]): 1.6
Ki (Human integrin α5β1 [11]): 318 nM
ratio of integrin Ki/αvβ3 Ki (Human integrin α5β1 [11]): 9.6

B3: c(CGisoDGRG) (peptide)
peptide: cyclo(CG[βAsp]GRG)
SMILES: N=C(N)NCCC[C@@H]1NC(=O)CNC(=O)C[C@@H](C(=O)O)NC(=O)CNC(=O)[C@H](CS)NC(=O)CNC1=O
notes: also called isoDGR#1
Ki (Human integrin αvβ3 [3]): 103 nM
ratio of integrin Ki/αvβ3 Ki (Human integrin αvβ3 [3]): 1
Ki [4]: 7270 nM
ratio of integrin Ki/αvβ3 Ki [4]: 70
Ki [5]: 1470 nM
ratio of integrin Ki/αvβ3 Ki [5]: 14
Ki (Human integrin αvβ5 [6]): 225 nM
ratio of integrin Ki/αvβ3 Ki (Human integrin αvβ5 [6]): 2
Ki (Human integrin α5β1 [7]): 320 nM
ratio of integrin Ki/αvβ3 Ki (Human integrin α5β1 [7]): 3

B5: c(CisoDGRGG) (peptide)
peptide: cyclo(C[βAsp]GRGG)
SMILES: N=C(N)NCCC[C@@H]1NC(=O)CNC(=O)C[C@@H](C(=O)O)NC(=O)[C@H](CS)NC(=O)CNC(=O)CNC1=O
notes: also called isoDGR#3
Ki (Human integrin αvβ3 [3]): 43 nM
Ki [4]: 54 nM
Ki [5]: 58 nM
Ki (Human integrin αvβ5 [6]): 42 nM
Ki (Human integrin α5β1 [7]): 21 nM

Now from value to molecule:

Ki (αvβ5): > 2500 nM
Ki (αvβ3): > 2500 nM
Ki (αvβ6): > 2500 nM
Ki (α5β1): > 2500 nM
Molecule: *AV(0:1): sulfo-SMCC-activated avidin lacking the peptide [reference compound]

Ki (Human integrin αvβ3 [3]): 483 nM
ratio of integrin Ki/αvβ3 Ki (Human integrin αvβ3 [3]): 1
Ki [4]: 1080 nM
ratio of integrin Ki/αvβ3 Ki [4]: 2.2
Ki [5]: 899 nM
ratio of integrin Ki/αvβ3 Ki [5]: 1.9
Ki (Human integrin αvβ5 [6]): 492 nM
ratio of integrin Ki/αvβ3 Ki (Human integrin αvβ5 [6]): 1
Ki (Human integrin α5β1 [7]): 266 nM
ratio of integrin Ki/αvβ3 Ki (Human integrin α5β1 [7]): 0.5
Molecule: cyclo(C[βAsp]GRG) (SMILES N=C(N)NCCC[C@@H]1NC(=O)CNC(=O)C[C@@H](C(=O)O)NC(=O)[C@H](CS)NC(=O)CNC1=O, also called isoDGR#2) [c(CisoDGRG)]

Ki (Human integrin αvβ3 [2]): 35 nM
ratio of integrin Ki/αvβ3 Ki (Human integrin αvβ3 [2]): 1
Ki [8]: 5600 nM
ratio of integrin Ki/αvβ3 Ki [8]: 160
Ki [9]: 583 nM
ratio of integrin Ki/αvβ3 Ki [9]: 17
Ki (Human integrin αvβ5 [10]): 35 nM
ratio of integrin Ki/αvβ3 Ki (Human integrin αvβ5 [10]): 1
Ki (Human integrin α5β1 [11]): 302 nM
ratio of integrin Ki/αvβ3 Ki (Human integrin α5β1 [11]): 8.6
B4: isoDGR#1-linker conjugate, peak P1 (peptide)
peptide: cyclo(C([SMCC-NH2])G[βAsp]GRG)
notes: HPLC peak P1 (amido form); also called isoDGR#1-P1
